Results taken from publication PMC5177617, “Complement Protein C1q Interacts with DC-SIGN via Its Globular Domain and Thus May Interfere with HIV-1 Transmission” (Frontiers in Immunology, 2016).
Substitutions are numbered along the chain they refer to.

T1: soluble DC-SIGN tetramer (entire extracellular domain including the α-helical neck region) (UniProt Q9NNX6 59-404)
T1 construct: DC-SIGN, entire extracellular domain (α-helical neck region and carbohydrate recognition domain); also called DC-SIGN ECD; tetrameric DC-SIGN
T1 sequence (looked up): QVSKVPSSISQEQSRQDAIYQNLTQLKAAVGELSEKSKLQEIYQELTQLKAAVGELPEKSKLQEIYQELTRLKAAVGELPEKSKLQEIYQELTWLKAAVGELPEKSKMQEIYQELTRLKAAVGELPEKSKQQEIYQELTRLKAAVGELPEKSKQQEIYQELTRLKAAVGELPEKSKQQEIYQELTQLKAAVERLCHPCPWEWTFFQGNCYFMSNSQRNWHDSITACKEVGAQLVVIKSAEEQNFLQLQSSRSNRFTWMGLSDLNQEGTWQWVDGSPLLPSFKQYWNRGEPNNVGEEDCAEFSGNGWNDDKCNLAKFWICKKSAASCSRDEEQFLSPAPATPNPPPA

T2: soluble DC-SIGNR tetramer (entire extracellular domain including the α-helical neck region) (UniProt Q9H2X3 71-399)
T2 construct: DC-SIGNR (DC-SIGN-related), entire extracellular domain (α-helical neck region and carbohydrate recognition domain); also called DC-SIGNR ECD
T2 sequence (looked up): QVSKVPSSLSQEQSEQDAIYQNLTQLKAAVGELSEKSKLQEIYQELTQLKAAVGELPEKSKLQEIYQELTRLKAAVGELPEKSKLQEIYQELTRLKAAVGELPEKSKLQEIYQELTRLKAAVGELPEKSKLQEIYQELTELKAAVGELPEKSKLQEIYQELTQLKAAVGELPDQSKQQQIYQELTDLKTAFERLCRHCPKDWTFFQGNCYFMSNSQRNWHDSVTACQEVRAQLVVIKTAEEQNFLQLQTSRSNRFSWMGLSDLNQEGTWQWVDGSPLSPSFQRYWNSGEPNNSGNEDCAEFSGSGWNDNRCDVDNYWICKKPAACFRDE

B1: recombinant globular head module ghB of human C1q, fused to maltose-binding protein (domain or fragment, UniProt P02746 117-253, looked up)
chain: KATQKIAFSATRTINVPLRRDQTIRFDHVITNMNNNYEPRSGKFTCKVPGLYYFTYHASSRGNLCVNLMRGRERAQKVVTFCDYAYNTFQVTTGGMVLKLEQGENVFLQATDKNSLLGMEGANSIFSGFLLFPDMEA
notes: globular head region of the B chain of human C1q (ghB module); source: E. coli BL21, purified (amylose resin)
B2: ghB substitution mutant Leu^B136Gly (domain or fragment)
chain: B1 chain with K47G
B3: recombinant globular head module ghC of human C1q, fused to maltose-binding protein (domain or fragment, UniProt P02747 115-245, looked up)
chain: KQKFQSVFTVTRQTHQPPAPNSLIRFNAVLTNPQGDYDTSTGKFTCKVPGLYYFVYHASHTANLCVLLYRSGVKVVTFCGHTSKTNQVNSGGVLLRLQVGEEVWLAVNDYYDMVGIQGSDSVFSGFLLFPD
notes: globular head region of the C chain of human C1q (ghC module); as I recall ghC is residues 87-217 of the mature C chain with MBP at the N-terminus; source: E. coli BL21, purified (amylose resin)
B4: recombinant globular head module ghA of human C1q, fused to maltose-binding protein (domain or fragment, UniProt P02745 110-245, looked up)
chain: KDQPRPAFSAIRRNPPMGGNVVIFDTVITNQEEPYQNHSGRFVCTVPGYYYFTFQVLSQWEICLSIVSSSRGQVRRSLGFCDTTNKGLFQVVSGGMVLQLQQGDQVWVEKDPKKGHIYQGSEADSVFSGFLIFPSA
notes: globular head region of the A chain of human C1q (ghA module); as I recall ghA is residues 88-223 of the mature A chain with MBP at the N-terminus; source: E. coli BL21, purified (amylose resin)

Columns and labels:
[1] = molecular target: soluble DC-SIGN tetramer (entire extracellular domain including the α-helical neck region) (UniProt Q9NNX6); assay: ELISA; DC-SIGN or DC-SIGNR (tetramer or monomer) coated (5, 2.5, 1.25, 0.625 µg/well, carbonate-bicarbonate buffer pH 9.6); ghA, ghB, ghC or mutants 2.5 µg/100 µl in 50 mM NaCl, 100 mM Tris-HCl pH 7.5, 5 mM CaCl2; 37°C […] then 4°C […]; detected with anti-MBP; percent binding against the wild-type module as 100%
[2] = molecular target: soluble DC-SIGNR tetramer (entire extracellular domain including the α-helical neck region) (UniProt Q9H2X3); assay: as above
[3] = molecular target: T1, soluble DC-SIGN tetramer (entire …); assay: ELISA; DC-SIGN or DC-SIGNR (tetramer or monomer) coated (5, 2.5, 1.25, 0.625 µg/well, carbonate-bicarbonate buffer pH 9.6); ghA, ghB, ghC or mutants 2.5 µg/100 µl in 50 mM NaCl, 100 mM Tris-HCl pH 7.5, 5 mM CaCl2; 37°C 1.5 h then 4°C 1.5 h; detected with anti-MBP; percent binding against the wild-type module as 100%; conditions: both partners purified
[4] = molecular target: T2, soluble DC-SIGNR tetramer (entire …); assay: as above; conditions: both partners purified

Row | Molecule | % binding (wild-type module = 100%) [1] [%] | % binding (wild-type module = 100%) [2] [%] | other results
1 | ghC substitution mutant Leu^170Glu (domain or fragment) | 78.3 | 79.8 | 
2 | ghC substitution mutant His^101Ala (from UniProt P02747 29-245) (domain or fragment) | 90.2 | 113 | 
3 | ghA substitution mutant Arg^A162Ala (from UniProt P02745 23-245) (domain or fragment) | 77.7 | 73.2 | 
4 | ghB substitution mutant Arg^B163Ala (from UniProt P02746 28-253) (domain or fragment) | 68.8 | 120 | 
5 | ghB substitution mutant Arg^B129Glu (from UniProt P02746 28-253) (domain or fragment) | 93.9 | 137 | 
6 | ghB substitution mutant Arg^B163Glu (from UniProt P02746 28-253) (domain or fragment) | 48.3 | 65.7 | 
7 | ghB substitution mutant His^B117Asp (from UniProt P02746 28-253) (domain or fragment) | 36.4 | 41 | 
8 | ghB substitution mutant Arg^B114Gln (from UniProt P02746 28-253) (domain or fragment) | 52.5 | 50.3 | % reduction in binding against wild-type ghB [1]: 80%
9 | ghB substitution mutant Tyr^B175Leu (from UniProt P02746 28-253) (domain or fragment) | 37.9 | 37.2 | % decrease in binding against wild-type ghB (at 0.625 µg of DC-SIGN) [1]: < 90%; % reduction in binding against wild-type ghB [1]: 82%; % decrease in binding against wild-type ghB (at 0.625 µg of DC-SIGNR) [2]: < 90%
10 | ghB substitution mutant ArgB114Ala (from UniProt P02746 28-253) (domain or fragment) | 57.4 | 61.4 | % reduction in binding against wild-type ghB [1]: 80%
11 | ghB substitution mutant Arg^B129Ala (from UniProt P02746 28-253) (domain or fragment) | 75 | 92.5 | 
12 | ghA substitution mutant Arg^A162Glu (from UniProt P02745 23-245) (domain or fragment) | 66.4 | 94.8 | % reduction in binding against wild-type ghA (at 5 µg of DC-SIGNR) [2]: 15%
13 | ghC substitution mutant Arg^156Glu (from UniProt P02747 29-245) (domain or fragment) | 101 | 75.8 | 
14 | B1 |  |  | % binding (wild-type module = 100%) [3]: 100%; % binding (wild-type module = 100%) [4]: 100%
15 | B2 |  |  | % binding (wild-type module = 100%) [3]: 47.7%; % binding (wild-type module = 100%) [4]: 54%
16 | B3 |  |  | % binding (wild-type module = 100%) [3]: 100%; % binding (wild-type module = 100%) [4]: 100%
17 | B4 |  |  | % binding (wild-type module = 100%) [3]: 100%; % binding (wild-type module = 100%) [4]: 100%
